One protein from patent US7361485 can be followed below.

Data set [1] addresses T1, modified pro-caspase-3 with an aggrecanase recognition sequence, P42574.
T1 chain: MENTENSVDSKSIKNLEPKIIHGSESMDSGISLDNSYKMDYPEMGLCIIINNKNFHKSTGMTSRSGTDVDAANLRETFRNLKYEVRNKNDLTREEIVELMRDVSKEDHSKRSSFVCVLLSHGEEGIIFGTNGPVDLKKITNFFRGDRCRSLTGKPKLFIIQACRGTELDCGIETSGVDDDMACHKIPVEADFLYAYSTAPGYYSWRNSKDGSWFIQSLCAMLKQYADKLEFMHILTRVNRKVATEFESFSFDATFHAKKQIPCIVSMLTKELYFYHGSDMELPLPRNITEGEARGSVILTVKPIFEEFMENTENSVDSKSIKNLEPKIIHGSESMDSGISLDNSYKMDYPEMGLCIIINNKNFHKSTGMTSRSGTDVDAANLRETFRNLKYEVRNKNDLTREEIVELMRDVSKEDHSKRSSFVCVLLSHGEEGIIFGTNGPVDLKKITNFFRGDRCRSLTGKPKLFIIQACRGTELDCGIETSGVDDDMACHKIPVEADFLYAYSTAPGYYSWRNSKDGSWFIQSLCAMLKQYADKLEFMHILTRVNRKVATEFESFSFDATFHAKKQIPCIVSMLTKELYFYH

The target of data set [2] is T2, modified pro-caspase-7 with an aggrecanase activation sequence, P55210.
T2 chain: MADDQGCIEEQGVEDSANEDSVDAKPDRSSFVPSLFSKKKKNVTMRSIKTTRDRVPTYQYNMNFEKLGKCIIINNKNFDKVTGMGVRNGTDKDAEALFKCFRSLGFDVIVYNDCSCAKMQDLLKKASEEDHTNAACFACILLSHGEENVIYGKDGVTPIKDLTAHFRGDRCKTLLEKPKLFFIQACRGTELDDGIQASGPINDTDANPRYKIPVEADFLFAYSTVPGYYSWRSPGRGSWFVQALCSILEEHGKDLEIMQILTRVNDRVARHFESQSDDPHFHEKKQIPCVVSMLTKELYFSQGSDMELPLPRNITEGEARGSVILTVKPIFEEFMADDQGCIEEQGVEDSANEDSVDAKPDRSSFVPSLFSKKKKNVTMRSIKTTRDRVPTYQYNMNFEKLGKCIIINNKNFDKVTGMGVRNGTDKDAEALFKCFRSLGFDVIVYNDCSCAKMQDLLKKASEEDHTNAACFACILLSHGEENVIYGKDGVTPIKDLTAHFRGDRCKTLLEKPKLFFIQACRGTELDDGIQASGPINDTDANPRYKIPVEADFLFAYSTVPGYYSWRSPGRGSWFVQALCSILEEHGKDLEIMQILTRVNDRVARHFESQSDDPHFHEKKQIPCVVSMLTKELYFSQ

B1: aggrecanase (ADAMTS-4) (protein)
chain: FASLSRFVETLVVADDKMAAFHGAGLKRYLLTVMAAAAKAFKHPSIRNPVSLVVTRLVILGSGEEGPQVGPSAAQTLRSFCAWQRGLNTPEDSDPDHFDTAILFTRQDLCGVSTCDTLGMADVGTVCDPARSCAIVEDDGLQSAFTAAHELGHVFNMLHDNSKPCISLNGPLSTSRHVMAPVMAHVDPEEPWSPCSARFITDFLDNGYGHCLLDKPEAPLHLPVTFPGKDYDADRQCQLTFGPDSRHCPQLPPPCAALWCSGHLNGHAMCQTKHSPWADGTPCGPAQACMGGRCLHMDQLQDFNIPQAGGWGPWGPWGDCSRTCGGGVQFSSRDCTRPVPRNGGKYCEGRRTRFRSCNTEDCPTGSALTFREEQCAAYNHRTDLFKSFPGPMDWVPRYTGVAPQDQCKLTCQAQALGYYYVLEPRVVDGTPCSPDSSSVCVQGRCIHAGCDRIIGSKKKFDKCMVCGGDGSGCSKQSGSFRKFRYGYNNVVTIPAGATHILVRQQGNPGHRSIYLALKLPDGSYALNGEYTLMPSPTDVVLPGAVSLRYSGATAASETLSGHGPLAQPLTLQVLVAGNPQDTRLRYSFFVPRPTPSTPRPTPQDWLHRRAQILEILRRRPWAGRK
B1: the “caspase activity (DEVD-pNA, A405)” value in data set [1] and in data set [2] was “Upon incubation of the various pro-caspase variants with their respective target enzymes a clear increase in caspase activity was observed” in each case.
